Test results taken from patent US9062100B2, “Anti-human TROP-2 antibody having anti-tumor activity in vivo” (LIVTECH, INC., dated 2015).
Where no end group is shown, it is not given here.

Legend:
human TROP-2 (hTROP-2) [1] = target: T1, human TROP-2 (hTROP-2) (human); assay: FACS on PK-59 cells
T1 chain: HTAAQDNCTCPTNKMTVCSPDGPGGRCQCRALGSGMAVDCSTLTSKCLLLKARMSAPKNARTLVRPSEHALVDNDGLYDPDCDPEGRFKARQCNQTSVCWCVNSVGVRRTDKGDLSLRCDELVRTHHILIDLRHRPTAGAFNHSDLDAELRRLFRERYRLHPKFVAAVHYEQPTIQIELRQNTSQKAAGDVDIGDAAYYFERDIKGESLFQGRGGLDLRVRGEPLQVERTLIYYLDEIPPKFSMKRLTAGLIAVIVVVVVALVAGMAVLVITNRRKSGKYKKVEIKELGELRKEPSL

human TROP-2 (hTROP-2) [2] = target: T1, human TROP-2 (hTROP-2); assay: FACS on BxPC-3 cells
Table 9 peptide No. 26 = Table 9 peptide No. 26 (human); assay: PEPSCAN CLIPS peptide ELISA
Sequence of Table 9 peptide No. 26 (human) (peptide, as listed by the source): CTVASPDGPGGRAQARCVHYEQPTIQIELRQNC

Table 9 peptide No. 27 = target: T2, Table 9 peptide No. 27 (human, not fully specified); assay: PEPSCAN CLIPS peptide ELISA
T2 peptide: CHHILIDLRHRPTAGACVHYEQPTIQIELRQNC

Table 9 peptide No. 28 = target: T3, Table 9 peptide No. 28 (human, not fully specified); assay: PEPSCAN CLIPS peptide ELISA
T3 peptide: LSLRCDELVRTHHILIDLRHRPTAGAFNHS

Table 9 peptide No. 29 = Table 9 peptide No. 29 (human); assay: PEPSCAN CLIPS peptide ELISA
Sequence of Table 9 peptide No. 29 (human) (peptide, as listed by the source): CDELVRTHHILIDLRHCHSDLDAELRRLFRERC

Table 9 peptide No. 1 = target: T4, Table 9 peptide No. 1 (human, not fully specified); assay: PEPSCAN CLIPS peptide ELISA
T4 peptide: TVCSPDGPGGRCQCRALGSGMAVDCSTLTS

Table 9 peptide No. 2 = target: T5, Table 9 peptide No. 2 (human, not fully specified); assay: PEPSCAN CLIPS peptide ELISA
T5 peptide: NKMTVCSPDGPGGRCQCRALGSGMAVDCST

Table 9 peptide No. 3 = target: T6, Table 9 peptide No. 3 (human, not fully specified); assay: PEPSCAN CLIPS peptide ELISA
T6 peptide: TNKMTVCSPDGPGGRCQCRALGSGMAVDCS

Table 9 peptide No. 4 = target: T7, Table 9 peptide No. 4 (human, not fully specified); assay: PEPSCAN CLIPS peptide ELISA
T7 peptide: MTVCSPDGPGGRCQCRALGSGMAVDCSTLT

Table 9 peptide No. 5 = target: T8, Table 9 peptide No. 5 (human, not fully specified); assay: PEPSCAN CLIPS peptide ELISA
T8 peptide: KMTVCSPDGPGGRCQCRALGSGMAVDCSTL

Table 9 peptide No. 6 = target: T9, Table 9 peptide No. 6 (human, not fully specified); assay: PEPSCAN CLIPS peptide ELISA
T9 peptide: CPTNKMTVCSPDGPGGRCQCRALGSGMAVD

Table 9 peptide No. 7 = target: T10, Table 9 peptide No. 7 (human, not fully specified); assay: PEPSCAN CLIPS peptide ELISA
T10 peptide: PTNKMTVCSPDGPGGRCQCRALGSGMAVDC

Table 9 peptide No. 8 = target: T11, Table 9 peptide No. 8 (human, not fully specified); assay: PEPSCAN CLIPS peptide ELISA
T11 peptide: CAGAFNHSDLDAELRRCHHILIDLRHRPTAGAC

Table 9 peptide No. 9 = target: T12, Table 9 peptide No. 9 (human, not fully specified; cysteine pairing not given here); assay: PEPSCAN CLIPS peptide ELISA
T12 peptide: CTHHILIDLRHRPTAGC

Table 9 peptide No. 10 = target: T13, Table 9 peptide No. 10 (human, not fully specified); assay: PEPSCAN CLIPS peptide ELISA
T13 peptide: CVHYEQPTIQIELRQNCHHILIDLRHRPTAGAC

Table 9 peptide No. 11 = target: T14, Table 9 peptide No. 11 (human, not fully specified); assay: PEPSCAN CLIPS peptide ELISA
T14 peptide: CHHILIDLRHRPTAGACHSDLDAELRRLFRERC

Table 9 peptide No. 12 = target: T15, Table 9 peptide No. 12 (human, not fully specified); assay: PEPSCAN CLIPS peptide ELISA
T15 peptide: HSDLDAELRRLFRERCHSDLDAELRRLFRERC

Table 9 peptide No. 13 = target: T16, Table 9 peptide No. 13 (human, not fully specified); assay: PEPSCAN CLIPS peptide ELISA
T16 peptide: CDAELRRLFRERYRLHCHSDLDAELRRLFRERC

Table 9 peptide No. 14 = target: T17, Table 9 peptide No. 14 (human, not fully specified; cysteine pairing not given here); assay: PEPSCAN CLIPS peptide ELISA
T17 peptide: CDAELRRLFRERYRLHCPK

Table 9 peptide No. 15 = target: T18, Table 9 peptide No. 15 (human, not fully specified); assay: PEPSCAN CLIPS peptide ELISA
T18 peptide: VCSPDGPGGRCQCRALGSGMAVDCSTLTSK

Table 9 peptide No. 16 = target: T19, Table 9 peptide No. 16 (human, not fully specified); assay: PEPSCAN CLIPS peptide ELISA
T19 peptide: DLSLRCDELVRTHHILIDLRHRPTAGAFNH

Table 9 peptide No. 17 = target: T20, Table 9 peptide No. 17 (human, not fully specified); assay: PEPSCAN CLIPS peptide ELISA
T20 peptide: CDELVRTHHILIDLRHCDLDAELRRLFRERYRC

Table 9 peptide No. 18 = target: T21, Table 9 peptide No. 18 (human, not fully specified; cysteine pairing not given here); assay: PEPSCAN CLIPS peptide ELISA
T21 peptide: CFQGRGGLDLRVRGEPC

Table 9 peptide No. 19 = target: T22, Table 9 peptide No. 19 (human, not fully specified); assay: PEPSCAN CLIPS peptide ELISA
T22 peptide: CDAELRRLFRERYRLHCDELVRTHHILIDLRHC

Table 9 peptide No. 20 = target: T23, Table 9 peptide No. 20 (human, not fully specified); assay: PEPSCAN CLIPS peptide ELISA
T23 peptide: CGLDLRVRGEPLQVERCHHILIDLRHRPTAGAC

Table 9 peptide No. 21 = target: T24, Table 9 peptide No. 21 (human, not fully specified); assay: PEPSCAN CLIPS peptide ELISA
T24 peptide: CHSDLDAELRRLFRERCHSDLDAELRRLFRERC

Table 9 peptide No. 22 = target: T25, Table 9 peptide No. 22 (human, not fully specified); assay: PEPSCAN CLIPS peptide ELISA
T25 peptide: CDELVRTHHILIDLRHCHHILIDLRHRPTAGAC

Table 9 peptide No. 23 = target: T26, Table 9 peptide No. 23 (human, not fully specified); assay: PEPSCAN CLIPS peptide ELISA
T26 peptide: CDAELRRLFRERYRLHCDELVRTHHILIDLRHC

Table 9 peptide No. 24 = target: T27, Table 9 peptide No. 24 (human, not fully specified); assay: PEPSCAN CLIPS peptide ELISA
T27 peptide: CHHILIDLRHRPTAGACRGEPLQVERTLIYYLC

Table 9 peptide No. 25 = target: T28, Table 9 peptide No. 25 (human, not fully specified; cysteine pairing not given here); assay: PEPSCAN CLIPS peptide ELISA
T28 peptide: CSPDGPGGRCQCRAL

[3] = target: T29, recombinant protein of the extracellular region of hTROP-2 (human); assay: ELISA of free antibody after equilibration with antigen in solution
T29 sequence: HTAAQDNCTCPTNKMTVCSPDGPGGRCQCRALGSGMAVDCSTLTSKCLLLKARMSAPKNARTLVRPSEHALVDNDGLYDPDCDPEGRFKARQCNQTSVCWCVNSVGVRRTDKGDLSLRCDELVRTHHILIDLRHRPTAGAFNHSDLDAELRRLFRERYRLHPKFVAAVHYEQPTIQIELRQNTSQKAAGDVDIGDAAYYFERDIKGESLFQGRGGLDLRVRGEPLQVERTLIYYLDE

mean fluorescence intensity, times that with PE-labeled anti-mouse IgG only (human TROP-2 (hTROP-2) [1]): 122 times
mean fluorescence intensity, times that with PE-labeled anti-mouse IgG only (human TROP-2 (hTROP-2) [2]): 121 times
binding of K5-116-2-1 (Table 9 peptide No. 26): 1220
binding of K5-116-2-1 (Table 9 peptide No. 27): 1220
binding of K5-116-2-1 (Table 9 peptide No. 28): 1220
binding of K5-116-2-1 (Table 9 peptide No. 29): 1200
binding of K5-116-2-1 (Table 9 peptide No. 1): 2670
binding of K5-116-2-1 (Table 9 peptide No. 2): 2610
binding of K5-116-2-1 (Table 9 peptide No. 3): 2480
binding of K5-116-2-1 (Table 9 peptide No. 4): 2440
binding of K5-116-2-1 (Table 9 peptide No. 5): 2420
binding of K5-116-2-1 (Table 9 peptide No. 6): 2140
binding of K5-116-2-1 (Table 9 peptide No. 7): 1720
binding of K5-116-2-1 (Table 9 peptide No. 8): 1640
binding of K5-116-2-1 (Table 9 peptide No. 9): 1590
binding of K5-116-2-1 (Table 9 peptide No. 10): 1500
binding of K5-116-2-1 (Table 9 peptide No. 11): 1480
binding of K5-116-2-1 (Table 9 peptide No. 12): 1470
binding of K5-116-2-1 (Table 9 peptide No. 13): 1460
binding of K5-116-2-1 (Table 9 peptide No. 14): 1440
binding of K5-116-2-1 (Table 9 peptide No. 15): 1430
binding of K5-116-2-1 (Table 9 peptide No. 16): 1420
binding of K5-116-2-1 (Table 9 peptide No. 17): 1390
binding of K5-116-2-1 (Table 9 peptide No. 18): 1380
binding of K5-116-2-1 (Table 9 peptide No. 19): 1370
binding of K5-116-2-1 (Table 9 peptide No. 20): 1340
binding of K5-116-2-1 (Table 9 peptide No. 21): 1330
binding of K5-116-2-1 (Table 9 peptide No. 22): 1320
binding of K5-116-2-1 (Table 9 peptide No. 23): 1270
binding of K5-116-2-1 (Table 9 peptide No. 24): 1230
binding of K5-116-2-1 (Table 9 peptide No. 25): 1230
Kd [3]: 0.0269 nM
B1: anti-hTROP-2 monoclonal antibody K5-116-2-1 (antibody, V domains shown)
VH: QVQLQQPGAELVRPGASVKLSCKASGYTFTSYWITWVKQRPGQGLEWIGNIYPSDSYTNYNQKFRDKATLTVDKSSSTAYMQLSSPTSEDSAVYYCSALFDYWGQGTTLTVSS
VL: DILLTQSPAILSVSPGERVSFSCRASQSIGTSIHWYQQRTNGSPRLLIKYASESISGIPSRFSGSGSGTDFILSINSVESEDIADYYCQQSNSWPFTFGSGTKLEIK
